Non-standard residues stand in square brackets, D forms with d. No end group written: not given here. R1 = not defined here; R2 = not defined here; Aib = CC(C)(N)C(=O)O
T1: gastric inhibitory peptide receptor
T1 sequence (P48546 whole entry, species assumed, looked up): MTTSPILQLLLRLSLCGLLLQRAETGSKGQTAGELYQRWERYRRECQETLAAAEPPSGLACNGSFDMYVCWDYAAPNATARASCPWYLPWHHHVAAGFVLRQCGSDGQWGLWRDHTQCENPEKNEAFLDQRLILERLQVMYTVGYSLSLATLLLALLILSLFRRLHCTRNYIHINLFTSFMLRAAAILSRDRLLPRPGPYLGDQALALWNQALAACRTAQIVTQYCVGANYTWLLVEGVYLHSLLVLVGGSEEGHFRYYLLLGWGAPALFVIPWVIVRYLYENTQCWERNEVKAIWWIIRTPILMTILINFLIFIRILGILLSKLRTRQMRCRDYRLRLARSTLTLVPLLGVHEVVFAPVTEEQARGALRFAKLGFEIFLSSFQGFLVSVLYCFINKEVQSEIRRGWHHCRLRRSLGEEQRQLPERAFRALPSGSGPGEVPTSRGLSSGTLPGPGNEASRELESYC


Experiments:
Assay in all cases: cell-based or functional assay
[1] = target: T1, gastric inhibitory peptide receptor
glucagon receptor = target: glucagon receptor
[2] = target: glucagon-like peptide-1 receptor

| Binder | In vitro activity relative to native polypeptide (%), relative to GIP (cAMP HTRF, from EC50) [1] | In vitro activity relative to native polypeptide (%), relative to GCG (cAMP HTRF, from EC50) (glucagon receptor) | In vitro activity relative to native polypeptide (%), relative to GLP-1 (cAMP HTRF, from EC50) [2] |
| --- | --- | --- | --- |
| H[Aib]QGTFTSDLSRAMEKEAVRLFIEWLIDGGPSSGAPPPS (ends and bridges not checked) [triple agonist peptide of SEQ ID NO: 4] | 7.37% | 2.17% | 71.4% |
| H[Aib]QGTFTSDLSLAQEKEAVRLFIEWLREGGPSSGAPPPS (ends and bridges not checked) [triple agonist peptide of SEQ ID NO: 8] | 2.02% | 1.21% | 123% |
| H[Aib]QGTFTSDLSRAMEKIAVRLFIEWLREGGPSSGAPPPS (ends and bridges not checked) [triple agonist peptide of SEQ ID NO: 1] | 3.99% | 1.33% | 64.7% |
| H[Aib]QGTFTSDLSRALEKIAARLFIEWLIEGGPSSGAPPPS (ends and bridges not checked) [triple agonist peptide of SEQ ID NO: 7] | 5.74% | 18.3% | 47.5% |
| H[Aib]QGTFTSDLSRAMEK(R2)IAVRLFIEWLIEGGPSSGAPPPS-NH2 (reading uncertain) [triple agonist peptide of SEQ ID NO: 13, chemically modified with R2 side chain] | 9.83% | 16.1% | 217% |
| H[Aib]QGTFTSDLSAAMEKIAVRLFIEWLREGGPSSGAPPPS (ends and bridges not checked) [triple agonist peptide of SEQ ID NO: 5] | 1.99% | 0.72% | 38.4% |
| H[Aib]QGTFTSDLSLEQEKIAVRLFIEWLREGGPSSGAPPPS (ends and bridges not checked) [triple agonist peptide of SEQ ID NO: 9] | 95.8% | 20.1% | 136% |
| H[Aib]QGTFTSDLSRALEK(R2)IAARLFIEWLIEGGPSSGAPPPS-NH2 (reading uncertain) [triple agonist peptide of SEQ ID NO: 14, chemically modified with R2 side chain] | 3.38% | 0.49% | 57% |
| H[Aib]QGTFTSDLSRAMEK(R1)IAVRLFIEWLIEGGPSSGAPPPS-NH2 (reading uncertain) [triple agonist peptide of SEQ ID NO: 11, chemically modified with R1 side chain] | 2.53% | 3.89% | 191% |
| H[Aib]QGTFTSDLSRAMEKEAVRLFIEWLREGGPSSGAPPPS (ends and bridges not checked) [triple agonist peptide of SEQ ID NO: 2] | 34% | 25.1% | 104% |
| H[Aib]QGTFTSDLSRAMEKIAVRLFIEWLIEGGPSSGAPPPS (ends and bridges not checked) [triple agonist peptide of SEQ ID NO: 6] | 3.27% | 0.89% | 116% |
| H[Aib]QGTFTSDLSRAMEKEAVRLFIEWLIEGGPSSGAPPPS (ends and bridges not checked) [triple agonist peptide of SEQ ID NO: 3] | 12.1% | 12.2% | 67.7% |
| H[Aib]QGTFTSDLSRYLEKEAVRLFIEWLIDGGPSSGAPPPS (ends and bridges not checked) [triple agonist peptide of SEQ ID NO: 10] | 94.7% | 21.8% | 71.6% |
